B1: GpH7-A5/GpH7-B3 variant L328_09D/GpL16-k0 (antibody, human IgG1, kappa)
heavy 1: not shown
heavy 2: not shown
light: DIVMTQSPLSLPVTPGEPASISCQASESLVHSNRNTYLHWYLQKPGQSPQLLIYKVSNRFSGVPDRFSGSGSGTDFTLKISRVEAEDVGVYYCSQNTHVPPTFGQGTKVEIERTVAAPSVFIFPPSDEQLKSGTASVVCLLNNFYPREAKVQWKVDNALQSGNSQESVTEQDSKDSTYSLSSTLTLSKADYEKHKVYACEVTHQGLSSPVTKSFNRGEC
notes: Heterodimerized IgG1, mutation in the GpH7-B3 chain only; also called He Ab
B2: GpH7-A5/GpH7-B3 variant L328_10E/GpL16-k0 (antibody, human IgG1, kappa)
heavy 1: not shown
heavy 2: not shown
light: B1 light
notes: as for B1
B3: GpH7-A5/GpH7-B3 variant L328_13S/GpL16-k0 (antibody, human IgG1, kappa)
heavy 1: not shown
heavy 2: not shown
light: B1 light
notes: as for B1
B4: GpH7-A5/GpH7-B3 variant L328_14T/GpL16-k0 (antibody, human IgG1, kappa)
heavy 1: not shown
heavy 2: not shown
light: B1 light
notes: as for B1
B5: GpH7-A5/GpH7-B3 variant L328_15Y/GpL16-k0 (antibody, human IgG1, kappa)
heavy 1: not shown
heavy 2: not shown
light: B1 light
notes: as for B1
B6: GpH7-A5/GpH7-B3 variant L328_20W/GpL16-k0 (antibody, human IgG1, kappa)
heavy 1: not shown
heavy 2: not shown
light: B1 light
notes: as for B1
B7: GpH7-A5/GpH7-B3 variant N325_04F/GpL16-k0 (antibody, human IgG1, kappa)
heavy 1: not shown
heavy 2: not shown
light: B1 light
notes: as for B1
B8: GpH7-A5/GpH7-B3 variant N325_06M/GpL16-k0 (antibody, human IgG1, kappa)
heavy 1: not shown
heavy 2: not shown
light: B1 light
notes: as for B1
B9: GpH7-A5/GpH7-B3 variant N325_07I/GpL16-k0 (antibody, human IgG1, kappa)
heavy 1: not shown
heavy 2: not shown
light: B1 light
notes: as for B1
B10: GpH7-A5/GpH7-B3 variant N325_08L/GpL16-k0 (antibody, human IgG1, kappa)
heavy 1: not shown
heavy 2: not shown
light: B1 light
notes: as for B1
B11: GpH7-A5/GpH7-B3 variant N325_13S/GpL16-k0 (antibody, human IgG1, kappa)
heavy 1: not shown
heavy 2: not shown
light: B1 light
notes: as for B1
B12: GpH7-A5/GpH7-B3 variant N325_20W/GpL16-k0 (antibody, human IgG1, kappa)
heavy 1: not shown
heavy 2: not shown
light: B1 light
notes: as for B1
B13: GpH7-A5/GpH7-B3 variant P331_03V/GpL16-k0 (antibody, human IgG1, kappa)
heavy 1: not shown
heavy 2: not shown
light: B1 light
notes: as for B1
B14: GpH7-A5/GpH7-B3 variant P331_16H/GpL16-k0 (antibody, human IgG1, kappa)
heavy 1: not shown
heavy 2: not shown
light: B1 light
notes: as for B1

The binders below were run against T1, FcγRIa extracellular domain with C-terminal His tag (human, UniProt P12314 16-292) (assay: SPR (Biacore), antibody captured, FcγR as analyte; binding relative to GpH7-A5/GpH7-B3/GpL16-k0 = 100).
T1 construct: extracellular domain; Soluble receptor used as analyte in Biacore; also called FcgRI
T1 sequence (P12314 16-292): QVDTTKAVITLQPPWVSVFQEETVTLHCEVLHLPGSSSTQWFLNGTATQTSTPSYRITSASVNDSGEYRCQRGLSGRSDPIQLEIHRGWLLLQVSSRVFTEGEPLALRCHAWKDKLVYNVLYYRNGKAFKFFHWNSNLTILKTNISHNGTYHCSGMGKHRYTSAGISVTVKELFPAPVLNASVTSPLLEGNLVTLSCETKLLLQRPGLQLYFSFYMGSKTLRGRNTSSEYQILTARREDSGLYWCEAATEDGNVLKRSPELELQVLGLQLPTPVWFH
B1 was tested, and the He/Con_1a was 102 control = 100.
Work on B2 yielded a He/Con_1a of 101 control = 100.
In the case of B3, the He/Con_1a is reported as 99 control = 100.
B4 was tested, and the He/Con_1a was 100 control = 100.
Binder B5 has a He/Con_1a of 102 control = 100.
B6 showed a He/Con_1a of 103 control = 100.
B7 showed a He/Con_1a of 93.2 control = 100.
B8 showed a He/Con_1a of 97.6 control = 100.
With B9 the He/Con_1a was 94.8 control = 100.
In the case of B10, the He/Con_1a is reported as 97.5 control = 100.
Binder B11 has a He/Con_1a of 96.8 control = 100.
B12 was tested, and the He/Con_1a was 93.8 control = 100.
With B13 the He/Con_1a was 92 control = 100.
With B14 the He/Con_1a was 92.4 control = 100.

These binders were tested against T2, FcγRIIb extracellular domain with C-terminal His tag (human, UniProt P31994 43-217) in the same assay as above.
T2 construct: extracellular domain; Soluble receptor used as analyte in Biacore; also called FcgRIIb
T2 sequence (looked up): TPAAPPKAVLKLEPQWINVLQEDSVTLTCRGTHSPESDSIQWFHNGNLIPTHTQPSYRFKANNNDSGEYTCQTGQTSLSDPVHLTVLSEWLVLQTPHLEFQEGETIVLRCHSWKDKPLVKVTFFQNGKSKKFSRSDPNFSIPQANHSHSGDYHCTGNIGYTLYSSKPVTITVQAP
In the case of B1, the He/Con_2b is reported as 199 control = 100.
In the case of B2, the He/Con_2b is reported as 172 control = 100.
With B3 the He/Con_2b was 149 control = 100.
B4 gave a He/Con_2b of 141 control = 100.
B5 gave a He/Con_2b of 193 control = 100.
B6 gave a He/Con_2b of 235 control = 100.
In the case of B7, the He/Con_2b is reported as 143 control = 100.
In the case of B8, the He/Con_2b is reported as 217 control = 100.
With B9 the He/Con_2b was 171 control = 100.
Binder B10 has a He/Con_2b of 197 control = 100.
Work on B11 yielded a He/Con_2b of 177 control = 100.
B12 gave a He/Con_2b of 169 control = 100.
Binder B13 has a He/Con_2b of 119 control = 100.
Binder B14 has a He/Con_2b of 116 control = 100.

What follows are binders tested against T1, FcγRIa extracellular domain with … (assay: ratio He/Con_1a : He/Con_2b (FcγRIa over FcγRIIb), SPR (Biacore)).
B1 was tested, and the “He_1a/2b (Ia/IIb)” value was 0.51.
In the case of B2, the “He_1a/2b (Ia/IIb)” value is reported as 0.59.
For B3, the “He_1a/2b (Ia/IIb)” value was 0.66.
In the case of B4, the “He_1a/2b (Ia/IIb)” value is reported as 0.71.
With B5 the “He_1a/2b (Ia/IIb)” value was 0.53.
B6 was tested, and the “He_1a/2b (Ia/IIb)” value was 0.44.
B7 was tested, and the “He_1a/2b (Ia/IIb)” value was 0.65.
With B8 the “He_1a/2b (Ia/IIb)” value was 0.45.
With B9 the “He_1a/2b (Ia/IIb)” value was 0.55.
With B10 the “He_1a/2b (Ia/IIb)” value was 0.5.
In the case of B11, the “He_1a/2b (Ia/IIb)” value is reported as 0.55.
For B12, the “He_1a/2b (Ia/IIb)” value was 0.56.
In the case of B13, the “He_1a/2b (Ia/IIb)” value is reported as 0.78.
In the case of B14, the “He_1a/2b (Ia/IIb)” value is reported as 0.8.
